In publication PMC6748592:

Target: CD52 peptide mimotope (…) (human)
Assay: SPR

B1: MAB1 light chain N33D mutant (antibody, V domains shown)
VH: EVQLVESGGGLVQPGGSLRLSCAASGFPFSNYWMNWVRQAPGKGLEWVGQIRLKSNNYATHYAESVKGRFTISRDDSKNSLYLQMNSLKTEDTAVYYCTPIDYWGQGTTVTVSS
VL: DIVMTQTPLSLSVTPGQPASISCKSSQSLLYSDGKTYLNWVLQKPGQSPQRLIYLVSKLDSGVPDRFSGSGSGTDFTLKISRVEAEDVGVYYCVQGSHFHTFGQGTKLEIK
- Kd: 1250 nM
